In paper PMC5101480 (Scientific Reports, 2016):
“Also recorded” adds a separate entry of the source.

What was measured:
[1] = system: TPR domain of SGTA (SGTA_TPR, residues 84–211); assay: Solution NMR CSP titration of unlabelled SGTA_TPR into 15N-labelled Rpn13_260-407; type: binding, human; conditions: 15N-labelled Rpn13_260-407, SGTA_TPR to 1:1; pH 6.0, 25 °C
Protocol: In order to understand molecular details underlying the interaction between SGTA and Rpn13, solution NMR studies were carried out on excised domains of SGTA and Rpn13 guided by earlier mapping studies. Reciprocal chemical shift perturbation (CSP) experiments were performed by titrating unlabelled Rpn13 C-terminal domain (residues 260–407; hereafter described as Rpn13_260-407) into ^15N-labelled TPR domain of SGTA (residues 84–211; hereafter referred to as SGTA_TPR) and vice versa. Assignments of backbone amide resonances were obtained from the BMRB (accession numbers 5709 and 17286, for SGTA_TPR and Rpn13_260-407, respectively). […]
Protein samples at concentrations between 300 μM and 1 mM were prepared in 10% D2O (Sigma Aldrich), 10 mM potassium phosphate pH 6.0, 100 mM NaCl and 250 μM TCEP buffer (with 10 μM DSS for proton chemical shift referencing). […] All NMR spectra were processed with TopSpin and analysed with CcpNMR Analysis[35]. Proteins used for NMR titrations were dialysed overnight against the same buffer (10 mM potassium phosphate pH 6.0, 100 mM NaCl and 250 μM TCEP) and mixed in different molar ratios, with the concentration of the labelled protein maintained constant. ^1H-^15N HSQC experiments were recorded for each titration point at 25 °C. Chemical shift perturbation (CSP) values were calculated for each amide signal using the following formula: […]

[2] = biological target: T1, TPR domain of SGTA (SGTA_TPR) (Homo sapiens, UniProt O43765); assay: Isothermal titration calorimetry (ITC), SGTA_TPR titrated into Rpn13 or DMSLD peptide; type: binding
T1 construct: thioredoxin A (TxA) fusion (N, cleaved yes); hexahistidine tag (N, cleaved yes); made in house; host or cells: E. coli BL21(DE3) Rosetta
T1 sequence (O43765 84-211): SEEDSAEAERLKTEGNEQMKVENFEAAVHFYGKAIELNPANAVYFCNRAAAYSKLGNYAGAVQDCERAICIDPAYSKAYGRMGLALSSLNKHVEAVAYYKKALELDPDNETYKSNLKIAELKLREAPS
Protocol: ITC experiments were performed using an ITC-200 microcalorimeter from Microcal (GE Healthcare) at 25 °C following the standard protocol as reported previously. Proteins or peptide samples were prepared in 10 mM potassium phosphate pH 6.0, 100 mM NaCl, 250 μM TCEP. In each titration, either 40 injections of 1 μL or 20 injections of 2 μL of SGTA_TPR each, at a concentration of 1 mM, were added to a sample of Rpn13 or the Rpn13 derived DMSLD peptide at a concentration of 50 μM in the reaction cell. A nonlinear least-squares minimization algorithm was applied to integrated heat data obtained for the titrations, corrected for heats of dilution, in order to fit the experimentally obtained values to a theoretical titration curve. This was performed using the MicroCal-Origin 7.0 software package. ΔH (reaction enthalpy change in kcal/mol), Kb (equilibrium binding constant in per molar), and n (molar ratio between the proteins in the complex) were used as fitting parameters. The reaction entropy, ΔS, was calculated using the relationships ΔG = −RT lnKb (R = 8.314 J/(mol K), T 298 K) where ΔG = ΔH − TΔS. Dissociation constants (Kd) have been determined for each interaction. Binding was assumed to be at one site (n = 1), to determine the binding affinity (Kd) and thermodynamic parameters.

[3] = system: K160E/R164E double mutant SGTA_TPR; assay: Size exclusion chromatography (SEC) complex formation with K160E/R164E double mutant SGTA_TPR; type: binding, human; conditions: Rpn13_260-407 up to 3-fold molar excess
Excerpt: The ‘two-carboxylate clamp’ mode of binding is a well-characterised mechanism of molecular recognition by TPR domains in the context of their binding to the conserved C-terminal IEEVD and MEEVD motifs of Hsp70 and Hsp90 chaperones, respectively. It is known that conserved residues present on the concave surface of the TPR domain form a positively charged region within this groove that clamp, the two carboxylate groups of the terminal aspartate (Fig. 3D). As the Rpn13 amino acid sequence ends with an aspartate, and given the C-terminal DMSLD peptide being necessary and sufficient for this interaction, the possibility of a two-carboxylate clamp mechanism was explored by site-directed mutagenesis experiments. […] Therefore a K160E/R164E double mutant version of SGTA was used in SEC and NMR experiments to understand the effect it had on Rpn13_260-407 binding.
Gene fragments encoding human Rpn13 (260–407 and 260–402) and SGTA_TPR domain (84–211) were PCR amplified from cDNA (Life Technologies) and cloned into the BamHI/XhoI site of a modified pET28 vector which encodes an N-terminal thioredoxine A (TxA) fusion protein followed by a hexahistidine tag and tobacco etch virus (TEV) protease cleavage site. […]

B1: Rpn13_260-407: Rpn13 C-terminal domain (residues 260–407), human, expressed in E. coli (protein)
chain: QPIQLSDLQSILATMNVPAGPAGGQQVDLASVLTPEIMAPILANADVQERLLPYLPSGESLPQTADEIQNTLTSPQFQQALGMFSAALASGQLGPLMCQFGLPAEAVEAANKGDVEAFAKAMQNNAKPEQKEGDTKDKKDEEEDMSLD
modifications: left off: thioredoxin A (TxA), N-terminal, cleaved | His6, N-terminal, cleaved
notes: Rpn13 C-terminal domain (residues 260–407), human, expressed in E. coli
[1]
  CSP of Rpn13_260-407 backbone amides on binding SGTA_TPR: only extreme C-terminal residues Met 404, Ser 405, Leu 406 and Asp 407 are perturbed
[2]; 1 mM SGTA_TPR into 50 μM sample, pH 6.0, 25 °C, calculated from ΔG = −RT lnKb and ΔG = ΔH − TΔS
  ΔS (ITC): 10.6 ± 0.8 cal/mol·K
[2]; 1 mM SGTA_TPR into 50 μM sample, pH 6.0, 25 °C, one site (n = 1)
  ΔH (ITC): -3.37 ± 0.08 kcal/mol
[2]; ITC-200, 1 mM SGTA_TPR injected into 50 μM Rpn13 or DMSLD peptide, 10 mM potassium phosphate pH 6.0, 100 mM NaCl, 250 μM TCEP, 25 °C, one site (n = 1), read-out: dissociation constant, Kd (ITC)
  Kd: 16.1 ± 1.4 µM
[3]
  SEC complex formation with K160E/R164E SGTA_TPR: does not co-elute; also recorded: no evidence of complex formation
